In patent US20220195023A1:

Assays:
[1] = target: (NPNA)3 (Plasmodium falciparum); assay: SPR, antibody on chip
[2] = target: (NANP)6 (Plasmodium falciparum); assay: SPR, antibody on chip
[3] = target: … (Plasmodium falciparum); assay: SPR, antibody on chip
[4] = target: (NVDP)3(NANP)2 (Plasmodium falciparum); assay: SPR, antibody on chip
[5] = target: (NPNA)3 (Plasmodium falciparum); assay: BLI, target on sensor
[6] = target: (NANP)6 (Plasmodium falciparum); assay: BLI, target on sensor
[7] = target: … (Plasmodium falciparum); assay: BLI, target on sensor
[8] = target: (NVDP)3(NANP)2 (Plasmodium falciparum); assay: BLI, target on sensor
[9] = target: NANPNVDP (Plasmodium falciparum); assay: BLI, target on sensor

| Binder | Kd [1] [nM] | Kd [2] [nM] | Kd [3] [nM] | Kd [4] [nM] | Kd [5] [nM] | Kd [6] [nM] | Kd [7] [nM] | Kd [8] [nM] | Kd [9] [nM] |
| --- | --- | --- | --- | --- | --- | --- | --- | --- | --- |
| AB-007049 (antibody, V domains shown) VH: QMQLVESGGGVVQPGRSLRLSCTASGFTFSTYAMHWVRQSPGQGLQWVAVISNHETNKYYEDSVRGRFTISRDNSKNTLYLQMNSLRAEDTAVYYCARDGYSSSFFDFWGQGTLVTVSS VL: DIQMTQSPSTLSASVGDRVAITCRASQSISRWLAWYQQQPGKAPKLLMSGASVLESGVPSRFSGSGSGTEFTLTISSLQPDDFATYYCQHYNSYFVTFGQGTKVEIK | 25.8 | 0.092 | 2950 | 7140 | 0.326 | 0.576 | 12.3 | 13 | 21.2 |
| AB-007052 (antibody, V domains shown) VH: QMQLVESGGGVVQPGRSLRLSCTASGFTFSTYAMHWVRQSPGQGLQWVAVISYHSNNKYYEDSVRGRFTISRDNSKNTLYLQMNSLRAEDTAVYYCARDGYSSSFFDFWGQGTLVTVSS VL: DIQMTQSPSTLSASVGDRVAITCRASQSISRWLAWYQQQPGKAPKLLMSGASVLESGVPSRFSGSGSGTEFTLTISSLQPDDFATYYCQHYNSYFVTFGQGTKVEIK | 6.31 | 0.0442 | 7140 | 2560 | 0.0169 | 0.392 | 3.83 | 6.28 | 7.34 |
| AB-007057 (antibody, V domains shown) VH: QMQLVESGGGVVQPGRSLRLSCTASGFTFSTYAMHWVRQSPGQGLQWVAVISYHSTNKYYEDSVRGRFTISRDNSKNTLYLQMNSLRAEDTAVYYCARDGYHSSFFDFWGQGTLVTVSS VL: DIQMTQSPSTLSASVGDRVAITCRASQSISRWLAWYQQQPGKAPKLLMSGASVLESGVPSRFSGSGSGTEFTLTISSLQPDDFATYYCQHYNSYFVTFGQGTKVEIK | 40.3 | 0.0419 | 20100 | 9090 | 0.311 | 0.976 | 10.5 | 11.2 | 15.3 |
| AB-007051 (antibody, V domains shown) VH: QMQLVESGGGVVQPGRSLRLSCTASGFTFSTYAMHWVRQSPGQGLQWVAVISYHSRNKYYEDSVRGRFTISRDNSKNTLYLQMNSLRAEDTAVYYCARDGYSSSFFDFWGQGTLVTVSS VL: DIQMTQSPSTLSASVGDRVAITCRASQSISRWLAWYQQQPGKAPKLLMSGASVLESGVPSRFSGSGSGTEFTLTISSLQPDDFATYYCQHYNSYFVTFGQGTKVEIK | 5.19 | 0.507 | 8840 | 2490 | 0.591 | 1.08 | 3.23 | 4.89 | 6.57 |
| AB-007054 (antibody, V domains shown) VH: QMQLVESGGGVVQPGRSLRLSCTASGFTFSTYAMHWVRQSPGQGLQWVAVISYHSTNKYYEDSVRGRFTISRDNSKNTLYLQMNSLRAEDTAVYYCARDGYASSFFDFWGQGTLVTVSS VL: DIQMTQSPSTLSASVGDRVAITCRASQSISRWLAWYQQQPGKAPKLLMSGASVLESGVPSRFSGSGSGTEFTLTISSLQPDDFATYYCQHYNSYFVTFGQGTKVEIK | 10.5 | 0.0552 | 17600 | 5670 | 0.61 | 1.72 | 8.5 | 10.2 | 13.7 |
